Measured values published in US7160981B2, “Peptide antagonists of DP transcription factors” (Prolifix Limited, priority 1996, dated 2007).
Entries after “also recorded” stand apart in the source; their conditions may differ.

T1: pRb / adenovirus E1a protein interaction (Homo sapiens, UniProt P06400)
T1 construct: GST; made in house; host or cells: pRb fusion purified on glutathione Sepharose; E1a made by in vitro translation
T1 sequence (P06400 1-928): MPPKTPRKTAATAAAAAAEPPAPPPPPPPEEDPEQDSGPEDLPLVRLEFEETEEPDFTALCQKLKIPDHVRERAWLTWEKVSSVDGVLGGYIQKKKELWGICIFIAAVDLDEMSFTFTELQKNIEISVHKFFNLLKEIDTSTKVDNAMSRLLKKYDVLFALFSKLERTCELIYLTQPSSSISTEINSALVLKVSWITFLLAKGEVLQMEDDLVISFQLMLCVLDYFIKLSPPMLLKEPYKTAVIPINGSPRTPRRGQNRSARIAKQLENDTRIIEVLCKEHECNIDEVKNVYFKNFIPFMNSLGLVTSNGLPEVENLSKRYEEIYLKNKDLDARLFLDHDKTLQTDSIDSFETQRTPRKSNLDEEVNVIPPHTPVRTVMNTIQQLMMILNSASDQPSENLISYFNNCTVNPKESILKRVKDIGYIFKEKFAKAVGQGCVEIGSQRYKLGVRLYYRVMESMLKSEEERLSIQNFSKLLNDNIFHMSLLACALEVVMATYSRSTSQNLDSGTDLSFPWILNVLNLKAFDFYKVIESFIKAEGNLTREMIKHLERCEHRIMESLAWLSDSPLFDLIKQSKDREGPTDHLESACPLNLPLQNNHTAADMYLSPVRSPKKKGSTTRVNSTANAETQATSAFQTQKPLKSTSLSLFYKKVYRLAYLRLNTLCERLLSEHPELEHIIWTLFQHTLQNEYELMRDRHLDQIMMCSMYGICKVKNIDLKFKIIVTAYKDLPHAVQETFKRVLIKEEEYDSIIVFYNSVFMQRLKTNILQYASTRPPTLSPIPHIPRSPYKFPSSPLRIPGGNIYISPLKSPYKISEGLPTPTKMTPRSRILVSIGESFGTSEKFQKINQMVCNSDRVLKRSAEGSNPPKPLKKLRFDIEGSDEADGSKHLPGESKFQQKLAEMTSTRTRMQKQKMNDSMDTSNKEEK

B1: DP-1^172/173: mutant DP-1 protein with residues A172 and L173 changed to glycine (protein, UniProt Q14186 1-410, looked up, variant A172G L173G)
Transcription factor Dp-1: MAKDAGLIEANGELKVFIDQNLSPGKGVVSLVAVHPSTVNPLGKQLLPKTFGQSNVNIAQQVVIGTPQRPAASNTLVVGSPHTPSTHFASQNQPSDSSPWSAGKRNRKGEKNGKGLRHFSMKVCEKVQRKGTTSYNEVADELVAEFSAADNHILPNESAYDQKNIRRRVYDGGNVLMAMNIISKEKKEIKWIGLPTNSAQECQNLEVERQRRLERIKQKQSQLQELILQQIAFKNLVQRNRHAEQQASRPPPPNSVIHLPFIIVNTSKKTVIDCSISNDKFEYLFNFDNTFEIHDDIEVLKRMGMACGLESGSCSAEDLKMARSLVPKALEPYVTEMAQGTVGGVFITTAGSTSNGTRFSASDLTNGADGMLATSSNGSQYSGSRVETPVSYVGEDDEEDDDFNENDEDD

What was measured:
[1] = molecular target: T2, E2F DNA binding activity of DP-1/E2F-1 heterodimer (Homo sapiens, UniProt Q01094); experiment: DP-1/E2F-1 DNA binding assay (gel retardation, bacterial fusion proteins); type: biochemical; settings: peptide titrated 1, 0.5, 0.1, 0.01 nmol
T2 construct: GST (N); made in house; host or cells: bacterial
Source text: Since the peptides function as antagonists of the formation of the DP/E2F heterodimer, we reasoned that they may also interfere with E2F DNA binding activity. To address this question, we determined whether the E2F DNA binding activity created in vitro from combining bacterial DP and E2F fusion proteins was affected by the peptides.
As previously shown, the interaction between DP-1 and E2F-1 leads to co-operative DNA binding activity. Peptide H (SEQ ID NO:1) was titrated into the DP-1/E2F-1 DNA binding assay, using 1 nmol, 0.5 nmol, 0.1 nmol and 0.01 nmol of peptide.
(§1) Gel retardation was performed using 5 to 10 μg of either F9 EC or JM cell extract with either an E2F or ATF site as previously described (15). Where fusion proteins were used, about 25 ng of either DP-1 or E2F-1 were used in each binding assay. For in vitro translates, about 6 μl of the translation mix was used in each binding assay. Gel retardation with an E2F binding site taken from the adenovirus E2a promoter was as previously described (15).

[2] = molecular target: T3, DP-1/E2F-1 heterodimer (Homo sapiens, UniProt Q01094); experiment: binding assay: GST-E2F-1 fusion protein bound to in vitro translated DP-1, peptide competition; settings: peptide included in binding reaction
T3 construct: GST (N); made in house; DP-1 made by in vitro translation
Source text: To determine the influence of the DEF box region upon the formation of the DP-1/E2F heterodimer, we used a binding assay in which E2F-1, expressed as a GST-E2F-1 fusion protein, bound to in vitro translated DP-1, an assay used previously to measure dimerization between DP and E2F proteins (31,32). Peptides were included in the binding reaction and their ability to compete with wild-type DP-1 for E2F-1 assessed by the amount of DP-1 which remained bound to the E2F-1 fusion protein.
(§2) GST-E2F-1, E2F-2, E2F-3 and pRb have been described previously (27,31,32) and were purified to homogeneity using glutathione Sepharose. In vitro translated DP-1, DP-1^172/173, E2F-1 and E1a were translated as described previously (27,31,32).
as §1

[3] = test system: physiological E2F DNA binding activity (DP-1/E2F heterodimer) in F9 embryonal carcinoma cell extracts; experiment: gel retardation, E2F site, F9 EC cell extracts; type: biochemical; settings: for inactivation of E2F DNA binding activity in F9 EC cell extracts: F9 EC cell extract, peptide up to 1 nmol
Source text: Because the DEF box peptides can antagonise DNA binding activity of the DP-1/E2F heterodimer formed in vitro, we went on to establish their effects on physiological E2F. For this experiment, we used extracts prepared from F9 embryonal carcinoma (EC) cells, since these cells contain high levels of endogenous E2F DNA binding activity as a DP-1/E2F-heterodimer (26).
(§3) In a similar fashion to its effect upon the in vitro formed activity, the physiological DNA binding activity in F9 EC cell extracts was inactivated upon titration of peptide H (using the same concentrations mentioned above), but not by H1. This effect was specific for E2F since no effect on the unrelated DNA binding activity ATF was observed under similar conditions.
as §1

[4] = molecular target: T4, DP-1/E2F-3 heterodimer (Homo sapiens, UniProt O00716); experiment: binding assay: GST-E2F-3 bound to in vitro translated DP-1; settings: peptide 5 nmol, 1 nmol, 100 pmol
T4 construct: GST (N); made in house; host or cells: GST fusion purified on glutathione Sepharose; DP-1 made by in vitro translation
Source text: (§4) FIG. 2 illustrates that peptides containing DEF box sequence prevent DP-1 forming a heterodimer with E2F family members. The ability of in vitro translated DP-1 (indicated by bracket) to bind to GST-E2F-1 (tracks 1,2,3 and 4), GST-E2F-2 (5,6,7 and 8) or GST-E2F-3 (9,10,11 and 12) in the absence (tracks 1,5 and 9) or presence of decreasing levels of peptide H (5 nmol; tracks 2,6 and 10; 1 nmol tracks 3,7 and 11 or 100 pmol tracks 4,8 and 12).
(§5) In the second, the activity of the DEF box antagonist peptide H was assessed on heterodimers formed between DP-1 and the other E2F family members, E2F-2 and E2F-3, which show high conservation with E2F-1 across the DEF box. […] We conclude therefore that peptides representing sequence derived from the DEF box function as specific antagonists of the DP-1/E2F heterodimer.
as §2

[5] = molecular target: T1, pRb / adenovirus E1a protein interaction; experiment: specificity control: binding of pRb to in vitro translated adenovirus E1a protein; settings: unrelated protein-protein interaction control
Description: To evaluate the specificity of this effect, we undertook two controls. Firstly, the effect of DEF box derived peptides on an unrelated but well characterised protein-protein interaction was assessed, namely the binding of pRb to the adenovirus E1a protein (34). The E1a protein, when provided in the assay as an in vitro translate, specifically bound to pRb. […] Secondly, unrelated peptides representing other regions of DP-1 or subdomains of peptide H were assessed in the binding reaction. […] Overall, the results argue that peptide H antagonises the interaction between DP-1 and E2F-1 in the formation of a heterodimer.
as §2

[6] = molecular target: T5, DP-1/E2F-2 heterodimer (Homo sapiens, UniProt Q14209); experiment: binding assay: GST-E2F-2 bound to in vitro translated DP-1; settings: peptide 5 nmol, 1 nmol, 100 pmol
T5 construct: GST (N); made in house; host or cells: GST fusion purified on glutathione Sepharose; DP-1 made by in vitro translation
Source text: as §4, §5, §2

[7] = test system: ATF DNA binding activity; experiment: gel retardation, ATF site (specificity control); type: biochemical; settings: similar conditions as E2F assay
Description: as §3, §1

[8] = test system: E2F site-dependent transcription; experiment: yeast E2F binding site reporter assay (p4xWT.CYC1); type: cell-based; settings: A172 and L173 changed to glycine
Source text: (§6) To study the role of the DEF box region in the context of the wild-type DP-1 protein, we took advantage of a yeast assay previously used to assess the properties of the DP-1/E2F heterodimer (23,31). When assayed in the context of two-hybrid proteins, with DP-1 is fused the LexA DNA binding domain and E2F-1 to the transcriptional activation domain of GAL4, transcriptional stimulation of a reporter construct driven by LEXA DNA binding sites was apparent only when both proteins were expressed together. Similarly, transcriptional activation of a reporter gene driven by physiological E2F DNA binding sites, in p4xWT.CYC1 (23,31), was dependent upon the presence of both proteins.
(§7) The yeast two-hybrid expression plasmids used were PLEX(HIS) which contains the complete LexA coding sequence, pGAD.L6 which contains the Gal 4 transcription activation domain. pLEX(HIS).DP-1 contains the murine DP-1 fused to the C-terminus of the LexA coding sequence and GAD.E2F-1 the human E2F-1 downstream of the Gal4 activation domain; all constructs were as described previously (23,31), apart from pLEX-DP-1/MT which contained DP-1 with residues 172 and 173 altered to glycine residues. Yeast strain CTY10-5d was used for the two-hybrid assay and W3031a, which carries p4xWT.CYC 1, for the E2F site-dependent transcription assay (23,31).

[9] = molecular target: T6, DP-1/E2F-1 interaction (UniProt Q01094+Q08639, A172G/L173G); experiment: yeast two-hybrid assay LexA-DP-1 / GAL4 activation domain-E2F-1; type: cell-based; settings: A172 and L173 changed to glycine
T6 construct: expressed in transfected cells; host or cells: yeast strain CTY10-5d
Source text: as §6, §7

T2 sequence (Q01094 whole entry, the tested form may be a part, one chain of several): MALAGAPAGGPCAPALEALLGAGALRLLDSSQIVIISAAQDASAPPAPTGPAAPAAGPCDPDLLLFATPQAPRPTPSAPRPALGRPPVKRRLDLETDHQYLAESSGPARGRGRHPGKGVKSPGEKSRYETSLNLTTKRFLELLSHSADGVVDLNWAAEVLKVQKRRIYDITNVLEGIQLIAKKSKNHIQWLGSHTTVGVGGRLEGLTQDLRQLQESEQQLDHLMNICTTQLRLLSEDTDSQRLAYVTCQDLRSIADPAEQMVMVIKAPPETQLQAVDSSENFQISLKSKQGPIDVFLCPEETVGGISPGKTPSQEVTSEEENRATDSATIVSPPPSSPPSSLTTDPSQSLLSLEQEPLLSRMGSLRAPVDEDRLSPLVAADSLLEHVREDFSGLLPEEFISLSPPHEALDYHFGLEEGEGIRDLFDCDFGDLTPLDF
T3 sequence (Q01094 whole entry, the tested form may be a part, one chain of several): as above
T4 sequence (O00716 whole entry, the tested form may be a part, one chain of several): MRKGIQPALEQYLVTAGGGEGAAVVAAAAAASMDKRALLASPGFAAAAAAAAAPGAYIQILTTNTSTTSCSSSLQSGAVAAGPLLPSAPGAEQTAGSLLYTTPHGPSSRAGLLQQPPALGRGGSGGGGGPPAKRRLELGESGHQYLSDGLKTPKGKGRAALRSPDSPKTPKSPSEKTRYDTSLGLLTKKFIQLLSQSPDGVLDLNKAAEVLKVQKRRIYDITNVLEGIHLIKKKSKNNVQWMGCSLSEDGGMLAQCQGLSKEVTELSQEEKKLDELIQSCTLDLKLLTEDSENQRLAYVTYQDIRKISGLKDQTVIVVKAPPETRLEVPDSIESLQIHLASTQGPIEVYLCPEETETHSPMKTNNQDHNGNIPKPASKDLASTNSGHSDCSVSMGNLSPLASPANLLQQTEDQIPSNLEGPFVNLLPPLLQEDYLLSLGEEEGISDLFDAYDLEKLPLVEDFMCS
T5 sequence (Q14209 whole entry, the tested form may be a part, one chain of several): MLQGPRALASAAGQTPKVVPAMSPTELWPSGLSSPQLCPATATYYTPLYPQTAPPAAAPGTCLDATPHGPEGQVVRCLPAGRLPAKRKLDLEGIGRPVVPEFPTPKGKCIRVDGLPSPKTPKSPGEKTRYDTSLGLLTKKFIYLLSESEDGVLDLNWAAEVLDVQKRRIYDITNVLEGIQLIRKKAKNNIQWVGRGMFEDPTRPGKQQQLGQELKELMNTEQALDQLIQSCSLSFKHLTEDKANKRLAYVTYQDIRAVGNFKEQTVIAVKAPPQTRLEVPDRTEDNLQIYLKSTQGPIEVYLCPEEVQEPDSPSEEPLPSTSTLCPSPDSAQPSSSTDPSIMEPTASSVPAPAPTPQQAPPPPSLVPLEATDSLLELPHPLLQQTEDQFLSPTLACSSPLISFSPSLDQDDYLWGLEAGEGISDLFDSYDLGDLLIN
T6 sequence (Q01094 whole entry, the tested form may be a part): as the sequence (Q01094 whole entry, the tested form may be a part, one chain of several) above
T6 sequence (Q08639 whole entry A172G/L173G, the tested form may be a part): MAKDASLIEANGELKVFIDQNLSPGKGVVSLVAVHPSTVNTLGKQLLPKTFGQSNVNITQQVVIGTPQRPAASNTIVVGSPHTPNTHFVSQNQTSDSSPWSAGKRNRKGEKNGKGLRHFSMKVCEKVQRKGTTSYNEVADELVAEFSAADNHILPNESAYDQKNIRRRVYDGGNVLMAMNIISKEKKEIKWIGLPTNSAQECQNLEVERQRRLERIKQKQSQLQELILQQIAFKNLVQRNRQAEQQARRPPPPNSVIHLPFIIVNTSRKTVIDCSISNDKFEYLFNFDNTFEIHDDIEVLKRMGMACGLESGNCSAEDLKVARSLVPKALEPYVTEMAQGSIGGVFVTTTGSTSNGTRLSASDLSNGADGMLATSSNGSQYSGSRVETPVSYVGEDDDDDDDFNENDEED

Row | Molecule | inhibition of DP-1/E2F-1 DNA binding activity [1] | effect on binding of DP-1 to E2F-1 (formation of DP-1/E2F-1 heterodimer) [2] | inactivation of E2F DNA binding activity in F9 EC cell extracts [3] | other results
1 | 15: DP-1 peptide taken from DCB1, C-terminal side of the DEF homology region (NLVQRNRQAEQQARR) [Peptide 15, reference compound] | did not interfere with DNA binding activity | failed to have any noticeable effect | – | –
2 | 17: DP-1 peptide taken from DCB1, C-terminal side of the DEF homology region (EVERQRRLERIKQKQ) [Peptide 17, reference compound] | did not interfere with DNA binding activity | failed to have any noticeable effect | – | –
3 | H1: peptide derived from the DEF box region which failed to affect heterodimer formation (RRRVYDALNVL) [Peptide H1] | did not interfere with DNA binding activity | failed to affect formation of the DP-1/E2F-1 heterodimer | not | –
4 | H6: shorter DEF box peptide lacking activity (RRVYDALNVLMAMN) [Peptide H6] | did not interfere with DNA binding activity | lacked activity; also recorded: failed to affect formation of the DP-1/E2F-1 heterodimer | – | –
5 | KNIRRRVYDALNVLMAMNIISKEKKEIKWIGLPTNSA [Peptide H, complete DEF box region, residues 163 to 199 of DP-1, 37 residues] | Clear inhibition of DNA binding activity | interfere with the binding efficiency of DP-1 and E2F-1 | inactivated | effect on ability of E2F-3 to bind to DP-1 [4]: interfered specifically; effect on binding of pRb to E1a [5]: no apparent effect; sensitivity of pocket protein-E2F complex relative to free E2F heterodimer ([3]; slower migrating E2F complex): less sensitive; effect on ability of E2F-2 to bind to DP-1 [6]: interfered specifically; effect on ATF DNA binding activity [7]: no effect
6 | NVLMAMNIISKEKKEIKWIG [Peptide H3] | lower activity compared to H2 and H7 | – | – | –
7 | Peptide 18: contains the N-terminal sequence taken from the DEF homology region (NESAYDQKNIRR) [reference compound] | did not interfere with DNA binding activity | failed to have any noticeable effect | – | –
8 | RARVYAALNVLMAMNIISK [Peptide H2mt2, mutant H2 peptide] | – | – | retained some activity, but less than wild-type H2 | –
9 | RRRAYDALNALMAMNIISK [Peptide H2mt1, mutant H2 peptide, V169 and V175 altered] | – | – | inactivated the E2F site DNA binding activity in F9 EC cell extracts with similar efficiency | –
10 | RVYDALNVLMAMNIIS [Peptide H5, 16 residues within H2] | lower activity compared to H2 and H7 | retained antagonistic activity | – | –
11 | B1 | – | – | – | reduction of response of E2F binding site reporter [8]: about 50%; reduction of activity relative to wild-type DP-1 in two-hybrid assay [9]: about 50%
